According to article PMC2630774 (FEBS letters, 2008):

T1: AhR (aryl hydrocarbon receptor), baculovirus expressed 6His fusion (human, UniProt P35869 11-848)
T1 sequence (looked up): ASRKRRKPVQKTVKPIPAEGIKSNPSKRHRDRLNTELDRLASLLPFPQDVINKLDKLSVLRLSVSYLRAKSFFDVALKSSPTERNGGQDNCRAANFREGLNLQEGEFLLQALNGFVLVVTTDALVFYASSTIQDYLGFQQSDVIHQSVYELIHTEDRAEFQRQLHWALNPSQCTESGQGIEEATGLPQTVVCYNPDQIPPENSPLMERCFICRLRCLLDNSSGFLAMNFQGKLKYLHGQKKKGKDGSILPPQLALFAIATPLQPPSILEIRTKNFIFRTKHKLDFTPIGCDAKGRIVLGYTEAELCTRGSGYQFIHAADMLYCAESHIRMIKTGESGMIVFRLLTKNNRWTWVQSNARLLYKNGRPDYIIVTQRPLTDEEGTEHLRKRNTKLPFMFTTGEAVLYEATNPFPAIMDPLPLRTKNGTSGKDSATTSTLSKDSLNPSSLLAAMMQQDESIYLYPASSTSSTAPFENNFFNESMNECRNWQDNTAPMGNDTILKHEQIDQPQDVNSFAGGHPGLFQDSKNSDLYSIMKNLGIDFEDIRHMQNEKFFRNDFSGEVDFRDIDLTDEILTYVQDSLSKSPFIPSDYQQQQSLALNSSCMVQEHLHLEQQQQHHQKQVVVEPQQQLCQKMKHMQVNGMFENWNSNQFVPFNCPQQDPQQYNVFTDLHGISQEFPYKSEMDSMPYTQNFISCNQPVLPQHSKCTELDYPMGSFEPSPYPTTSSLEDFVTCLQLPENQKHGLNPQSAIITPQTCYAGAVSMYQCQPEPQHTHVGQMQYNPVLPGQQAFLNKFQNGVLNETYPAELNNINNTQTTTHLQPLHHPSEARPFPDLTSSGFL

B1: Arnt (AhR nuclear translocator), baculovirus expressed 6His fusion (natural protein)
chain: not shown
B2: 32P-CΔ553 (AhR deletion construct with C-terminal 553 amino acids deleted, thioredoxin released, 32P-labelled) (domain or fragment, human, UniProt P35869 1-295, looked up)
chain: MNSSSANITYASRKRRKPVQKTVKPIPAEGIKSNPSKRHRDRLNTELDRLASLLPFPQDVINKLDKLSVLRLSVSYLRAKSFFDVALKSSPTERNGGQDNCRAANFREGLNLQEGEFLLQALNGFVLVVTTDALVFYASSTIQDYLGFQQSDVIHQSVYELIHTEDRAEFQRQLHWALNPSQCTESGQGIEEATGLPQTVVCYNPDQIPPENSPLMERCFICRLRCLLDNSSGFLAMNFQGKLKYLHGQKKKGKDGSILPPQLALFAIATPLQPPSILEIRTKNFIFRTKHKLDF
modifications: 32P-phosphate (HMK phosphorylation using 32P-gamma ATP; residue not stated)
B3: TH-CΔ553 (thioredoxin fusion of CΔ553, a deletion construct of human AhR) (domain or fragment, UniProt P35869 1-295, looked up)
chain: B2 chain
B4: unlabelled CΔ553 (AhR deletion construct with C-terminal 553 amino acids deleted, without thioredoxin fusion) (domain or fragment, human, UniProt P35869 1-295, looked up)
chain: B2 chain

Legend:
[1] = target: T1, AhR (aryl hydrocarbon receptor), …; experiment: native gel or EMSA
[2] = target: B1; experiment: co-IP
[3] = target: B1; experiment: native gel or EMSA

Binder | binding result [3] | other results
B1 |  | binding result [1]: binds
B2 |  | binding result [2]: binds
B3 | binds | 
B4 | binds | 
